Assay results from publication PMC3327772.

Molecular target: IAEDANS labeled sarcoplasmic reticulum Ca-ATPase (SERCA) (rabbit (purified from rabbit skeletal muscle)) (UniProt P04191)
Test: FRET or BRET

## Dabcyl labeled monomeric AFA-PLB mutant (C36A/C41F/C46A) of phospholamban (peptide)
  Xb (fraction of SERCA bound to PLB) (mole fraction): 0.82
